Data: patent publication US20220143024A1, “METHODS OF USING IMIPRIDONES” (Board of Regents, The University of Texas System, priority 2019, published 2022)

Experiments:
Test in all cases: BioID-MS +ONC201
[1] = target: ACAD9 (human) (UniProt Q9H845)
[2] = target: ACADSB (human) (UniProt P45954)
[3] = target: ACADVL (human) (UniProt P49748)
[4] = target: ACAT1 (human) (UniProt P24752)
[5] = target: AFG3L2 (human) (UniProt Q9Y4W6)
[6] = target: AK3 (human) (UniProt Q9UIJ7)
[7] = target: ALDH6A1 (human) (UniProt Q02252)
[8] = target: ARG2 (human) (UniProt P78540)
[9] = target: BCS1L (human) (UniProt Q9Y276)
[10] = target: C12orf10 (human) (UniProt Q9HB07)
[11] = target: COX4I1 (human) (UniProt P13073)
[12] = target: DHRS4 (human) (UniProt Q9BTZ2)
[13] = target: DHTKD1 (human) (UniProt Q96HY7)
[14] = target: ERAL1 (human) (UniProt O75616)
[15] = target: ETFB (human) (UniProt P38117)
[16] = target: FASTKD2 (human) (UniProt Q9NYY8)
[17] = target: GFM1 (human) (UniProt Q96RP9)
[18] = target: GRSF1 (human) (UniProt Q12849)
[19] = target: GTPBP10 (human) (UniProt A4D1E9)
[20] = target: HARS2 (human) (UniProt P49590)
[21] = target: HSDL2 (human) (UniProt Q6YN16)
[22] = target: IBA57 (human) (UniProt Q5T440)
[23] = target: LYRM7 (human) (UniProt Q5U5X0)
[24] = target: MPST (human) (UniProt P25325)
[25] = target: MRPL12 (human) (UniProt P52815)
[26] = target: MRPS11 (human) (UniProt P82912)
[27] = target: MRPS15 (human) (UniProt P82914)
[28] = target: MRPS16 (human) (UniProt Q9Y3D3)
[29] = target: MTHFD1L (human) (UniProt Q6UB35)
[30] = target: NADKD1 (human) (UniProt Q4G0N4)
[31] = target: NDUFA12 (human) (UniProt Q9UI09)
[32] = target: NDUFA6 (human) (UniProt P56556)
[33] = target: NDUFAF3 (human) (UniProt Q9BU61)
[34] = target: NDUFS6 (human) (UniProt O75380)
[35] = target: NDUFS8 (human) (UniProt O00217)
[36] = target: NDUFV3 (human) (UniProt P56181)
[37] = target: NME4 (human) (UniProt O00746)
[38] = target: PDK3 (human) (UniProt Q15120)
[39] = target: PIN1 (human) (UniProt Q13526)
[40] = target: PITRM1 (human) (UniProt Q5JRX3)
[41] = target: POLG2 (human) (UniProt Q9UHN1)
[42] = target: RNMTL1 (human) (UniProt Q9HC36)
[43] = target: SDHAF3 (human) (UniProt Q9NRP4)
[44] = target: SPRYD4 (human) (UniProt Q8WW59)
[45] = target: SUPV3L1 (human) (UniProt Q8IYB8)
[46] = target: T1MM44 (human) (UniProt O43615)
[47] = target: TBRG4 (human) (UniProt Q969Z0)
[48] = target: THNSL1 (human) (UniProt Q8IYQ7)
[49] = target: TST (human) (UniProt Q16762)
[50] = target: VARS2 (human) (UniProt Q5ST30)
[51] = target: WARS2 (human) (UniProt Q9UGM6)
Chain of WARS2 (human) (Q9UGM6 19-360 limits assumed): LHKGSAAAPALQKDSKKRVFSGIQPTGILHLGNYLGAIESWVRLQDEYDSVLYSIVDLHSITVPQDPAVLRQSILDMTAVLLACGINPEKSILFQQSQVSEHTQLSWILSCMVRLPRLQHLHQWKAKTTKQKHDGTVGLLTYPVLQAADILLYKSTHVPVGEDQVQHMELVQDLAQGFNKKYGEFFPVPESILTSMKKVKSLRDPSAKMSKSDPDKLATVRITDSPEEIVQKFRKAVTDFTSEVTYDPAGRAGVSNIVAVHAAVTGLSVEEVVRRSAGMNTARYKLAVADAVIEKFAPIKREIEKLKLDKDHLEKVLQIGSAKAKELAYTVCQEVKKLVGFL

Chain of GTPBP10 (human) (A4D1E9 whole entry): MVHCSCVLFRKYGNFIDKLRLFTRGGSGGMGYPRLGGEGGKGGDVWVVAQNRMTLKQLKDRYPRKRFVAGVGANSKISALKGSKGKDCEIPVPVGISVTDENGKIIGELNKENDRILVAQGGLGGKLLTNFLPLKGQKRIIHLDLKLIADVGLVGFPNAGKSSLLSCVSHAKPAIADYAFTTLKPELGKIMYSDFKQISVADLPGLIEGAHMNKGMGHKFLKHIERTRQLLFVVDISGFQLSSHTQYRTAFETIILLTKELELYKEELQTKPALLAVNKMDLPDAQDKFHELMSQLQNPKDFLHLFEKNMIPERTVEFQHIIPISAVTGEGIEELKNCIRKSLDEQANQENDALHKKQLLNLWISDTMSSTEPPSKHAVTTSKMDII
Chain of NDUFA6 (human) (P56556 whole entry): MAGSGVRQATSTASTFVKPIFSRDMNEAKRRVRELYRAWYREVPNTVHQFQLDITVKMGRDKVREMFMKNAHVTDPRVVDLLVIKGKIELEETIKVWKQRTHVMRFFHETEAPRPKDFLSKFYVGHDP
Chain of LYRM7 (human) (Q5U5X0 whole entry): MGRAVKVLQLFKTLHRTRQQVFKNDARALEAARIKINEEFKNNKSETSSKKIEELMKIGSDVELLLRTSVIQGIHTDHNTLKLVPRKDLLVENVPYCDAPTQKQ
Chain of ARG2 (human) (P78540 23-354 limits assumed): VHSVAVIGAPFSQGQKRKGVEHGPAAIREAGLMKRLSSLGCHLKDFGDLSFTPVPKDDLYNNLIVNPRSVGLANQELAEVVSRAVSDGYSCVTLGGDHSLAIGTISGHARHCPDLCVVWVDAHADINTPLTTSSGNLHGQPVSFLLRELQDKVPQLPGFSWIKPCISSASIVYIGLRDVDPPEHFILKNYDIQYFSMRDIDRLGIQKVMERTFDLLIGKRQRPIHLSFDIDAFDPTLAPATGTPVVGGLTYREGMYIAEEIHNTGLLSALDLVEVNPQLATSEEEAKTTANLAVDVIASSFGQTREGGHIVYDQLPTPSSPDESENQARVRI
Chain of GRSF1 (human) (Q12849 118-480 limits assumed): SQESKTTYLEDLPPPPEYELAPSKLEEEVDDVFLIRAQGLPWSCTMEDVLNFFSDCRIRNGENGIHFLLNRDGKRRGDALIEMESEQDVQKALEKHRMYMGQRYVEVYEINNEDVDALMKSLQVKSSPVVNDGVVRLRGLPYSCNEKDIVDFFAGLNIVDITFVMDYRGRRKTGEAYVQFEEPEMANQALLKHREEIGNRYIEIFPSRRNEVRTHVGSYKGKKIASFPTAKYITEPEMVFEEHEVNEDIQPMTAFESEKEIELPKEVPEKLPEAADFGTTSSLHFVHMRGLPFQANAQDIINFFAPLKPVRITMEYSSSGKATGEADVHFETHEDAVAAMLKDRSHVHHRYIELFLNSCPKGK
Chain of THNSL1 (human) (Q8IYQ7 whole entry): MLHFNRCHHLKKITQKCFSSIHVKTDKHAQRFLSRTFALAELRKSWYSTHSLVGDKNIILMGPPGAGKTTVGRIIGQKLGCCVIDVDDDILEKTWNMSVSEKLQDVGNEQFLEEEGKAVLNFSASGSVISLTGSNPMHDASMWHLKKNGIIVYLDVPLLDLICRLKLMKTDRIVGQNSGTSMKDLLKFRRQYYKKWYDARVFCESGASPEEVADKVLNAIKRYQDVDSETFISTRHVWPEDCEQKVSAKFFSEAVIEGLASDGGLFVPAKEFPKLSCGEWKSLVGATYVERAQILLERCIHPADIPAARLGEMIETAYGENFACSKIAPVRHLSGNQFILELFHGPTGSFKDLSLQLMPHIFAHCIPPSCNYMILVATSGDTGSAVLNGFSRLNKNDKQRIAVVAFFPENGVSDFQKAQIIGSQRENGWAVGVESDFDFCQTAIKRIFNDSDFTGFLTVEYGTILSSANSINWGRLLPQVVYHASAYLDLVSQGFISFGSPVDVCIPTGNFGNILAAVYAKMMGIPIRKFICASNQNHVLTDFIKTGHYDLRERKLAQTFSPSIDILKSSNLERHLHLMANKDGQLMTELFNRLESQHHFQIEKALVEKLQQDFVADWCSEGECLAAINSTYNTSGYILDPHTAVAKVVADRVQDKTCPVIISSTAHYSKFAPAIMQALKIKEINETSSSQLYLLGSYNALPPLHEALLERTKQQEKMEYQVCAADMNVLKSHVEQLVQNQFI
Chain of PIN1 (human) (Q13526 whole entry): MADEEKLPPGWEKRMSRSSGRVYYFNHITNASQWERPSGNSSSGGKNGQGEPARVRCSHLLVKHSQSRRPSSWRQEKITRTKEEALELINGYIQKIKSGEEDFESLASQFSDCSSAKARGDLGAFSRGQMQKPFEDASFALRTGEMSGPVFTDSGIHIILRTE
Chain of AFG3L2 (human) (Q9Y4W6 67-797 limits assumed): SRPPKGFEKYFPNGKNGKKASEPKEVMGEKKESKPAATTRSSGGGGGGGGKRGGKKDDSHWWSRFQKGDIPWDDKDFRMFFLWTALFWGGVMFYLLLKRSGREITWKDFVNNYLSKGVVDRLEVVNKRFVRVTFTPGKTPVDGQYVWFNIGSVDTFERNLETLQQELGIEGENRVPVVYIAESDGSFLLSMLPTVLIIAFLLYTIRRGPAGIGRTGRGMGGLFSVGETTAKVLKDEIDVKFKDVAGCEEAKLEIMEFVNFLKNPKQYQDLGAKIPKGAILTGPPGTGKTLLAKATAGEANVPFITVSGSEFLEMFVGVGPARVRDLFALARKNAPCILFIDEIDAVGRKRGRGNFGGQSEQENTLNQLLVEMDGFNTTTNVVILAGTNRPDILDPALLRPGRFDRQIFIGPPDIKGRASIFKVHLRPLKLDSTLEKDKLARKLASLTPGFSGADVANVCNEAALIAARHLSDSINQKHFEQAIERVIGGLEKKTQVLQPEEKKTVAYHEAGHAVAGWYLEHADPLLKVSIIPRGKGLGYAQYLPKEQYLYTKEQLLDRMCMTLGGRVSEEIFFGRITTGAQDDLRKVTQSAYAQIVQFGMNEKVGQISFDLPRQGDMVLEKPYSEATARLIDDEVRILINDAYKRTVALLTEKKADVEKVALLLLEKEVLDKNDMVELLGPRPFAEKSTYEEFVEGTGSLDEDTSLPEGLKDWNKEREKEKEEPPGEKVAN
Chain of VARS2 (human) (Q5ST30 27-1063 limits assumed): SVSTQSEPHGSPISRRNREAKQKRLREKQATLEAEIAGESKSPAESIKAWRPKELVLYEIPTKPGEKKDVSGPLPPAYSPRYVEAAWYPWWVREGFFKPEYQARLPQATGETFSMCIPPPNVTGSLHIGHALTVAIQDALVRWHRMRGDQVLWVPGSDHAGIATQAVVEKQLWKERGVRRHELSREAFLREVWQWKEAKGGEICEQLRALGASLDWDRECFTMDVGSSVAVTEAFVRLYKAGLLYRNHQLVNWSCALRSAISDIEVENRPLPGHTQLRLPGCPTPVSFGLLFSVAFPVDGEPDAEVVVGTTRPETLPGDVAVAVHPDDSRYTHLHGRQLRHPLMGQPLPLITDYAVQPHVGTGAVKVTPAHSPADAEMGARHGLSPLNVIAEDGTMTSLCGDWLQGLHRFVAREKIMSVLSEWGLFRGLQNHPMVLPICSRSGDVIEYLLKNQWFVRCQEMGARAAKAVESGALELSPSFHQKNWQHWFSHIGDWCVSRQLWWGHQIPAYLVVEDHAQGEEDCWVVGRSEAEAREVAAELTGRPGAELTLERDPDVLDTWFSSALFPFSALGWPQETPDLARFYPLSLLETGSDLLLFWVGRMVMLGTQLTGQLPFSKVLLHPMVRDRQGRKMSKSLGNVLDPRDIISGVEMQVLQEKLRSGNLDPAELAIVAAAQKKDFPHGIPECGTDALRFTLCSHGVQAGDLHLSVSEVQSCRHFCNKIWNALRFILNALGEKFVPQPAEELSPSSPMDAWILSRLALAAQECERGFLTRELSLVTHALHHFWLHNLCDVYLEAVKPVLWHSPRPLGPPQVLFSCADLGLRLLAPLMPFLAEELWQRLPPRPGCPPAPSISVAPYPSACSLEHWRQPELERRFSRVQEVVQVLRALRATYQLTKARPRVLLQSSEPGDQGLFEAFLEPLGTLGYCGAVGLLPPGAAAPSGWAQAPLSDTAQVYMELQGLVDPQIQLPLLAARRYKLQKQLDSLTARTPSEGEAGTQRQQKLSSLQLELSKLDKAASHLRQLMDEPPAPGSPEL
Chain of NME4 (human) (O00746 29-187 limits assumed): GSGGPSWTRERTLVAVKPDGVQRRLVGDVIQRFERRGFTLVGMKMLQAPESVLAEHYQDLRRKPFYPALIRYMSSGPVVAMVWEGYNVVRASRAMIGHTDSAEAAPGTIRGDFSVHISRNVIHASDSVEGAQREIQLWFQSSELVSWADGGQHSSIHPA
Chain of SDHAF3 (human) (Q9NRP4 31-125 limits assumed): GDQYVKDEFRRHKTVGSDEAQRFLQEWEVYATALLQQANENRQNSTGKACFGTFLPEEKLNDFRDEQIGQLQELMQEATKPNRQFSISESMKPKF
Chain of TST (human) (Q16762 2-297 limits assumed): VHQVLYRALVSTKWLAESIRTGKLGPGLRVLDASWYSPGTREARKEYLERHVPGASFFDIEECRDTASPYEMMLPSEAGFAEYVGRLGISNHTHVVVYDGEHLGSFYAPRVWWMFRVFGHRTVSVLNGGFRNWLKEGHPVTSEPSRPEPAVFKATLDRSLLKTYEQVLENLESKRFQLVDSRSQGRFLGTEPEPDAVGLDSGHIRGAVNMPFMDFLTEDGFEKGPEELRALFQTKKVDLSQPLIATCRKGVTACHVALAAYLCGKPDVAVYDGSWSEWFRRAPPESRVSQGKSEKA

Log2 Fold change (vs control) [1]: -0.76 log2
Log2 Fold change (vs control) [2]: -1.76 log2
Log2 Fold change (vs control) [3]: 0.55 log2
Log2 Fold change (vs control) [4]: -0.59 log2
Log2 Fold change (vs control) [5]: -0.14 log2
Log2 Fold change (vs control) [6]: -1.05 log2
Log2 Fold change (vs control) [7]: -3.81 log2
Log2 Fold change (vs control) [8]: -0.16 log2
Log2 Fold change (vs control) [9]: -0.17 log2
Log2 Fold change (vs control) [10]: -3.75 log2
Log2 Fold change (vs control) [11]: -2.74 log2
Log2 Fold change (vs control) [12]: -2.32 log2
Log2 Fold change (vs control) [13]: -5.25 log2
Log2 Fold change (vs control) [14]: -6.19 log2
Log2 Fold change (vs control) [15]: -1.35 log2
Log2 Fold change (vs control) [16]: -0.62 log2
Log2 Fold change (vs control) [17]: -1.08 log2
Log2 Fold change (vs control) [18]: -6.34 log2
Log2 Fold change (vs control) [19]: -4.91 log2
Log2 Fold change (vs control) [20]: -1.3 log2
Log2 Fold change (vs control) [21]: -0.71 log2
Log2 Fold change (vs control) [22]: -1.05 log2
Log2 Fold change (vs control) [23]: -1.38 log2
Log2 Fold change (vs control) [24]: -4.46 log2
Log2 Fold change (vs control) [25]: -3.32 log2
Log2 Fold change (vs control) [26]: -4.25 log2
Log2 Fold change (vs control) [27]: -4.91 log2
Log2 Fold change (vs control) [28]: -3.81 log2
Log2 Fold change (vs control) [29]: -0.39 log2
Log2 Fold change (vs control) [30]: -2.04 log2
Log2 Fold change (vs control) [31]: -7.55 log2
Log2 Fold change (vs control) [32]: -1.08 log2
Log2 Fold change (vs control) [33]: -0.73 log2
Log2 Fold change (vs control) [34]: -6.32 log2
Log2 Fold change (vs control) [35]: -2.73 log2
Log2 Fold change (vs control) [36]: -8.18 log2
Log2 Fold change (vs control) [37]: -1.16 log2
Log2 Fold change (vs control) [38]: -1.55 log2
Log2 Fold change (vs control) [39]: -0.11 log2
Log2 Fold change (vs control) [40]: -4.25 log2
Log2 Fold change (vs control) [41]: -5.29 log2
Log2 Fold change (vs control) [42]: 0.05 log2
Log2 Fold change (vs control) [43]: -3.82 log2
Log2 Fold change (vs control) [44]: -1.26 log2
Log2 Fold change (vs control) [45]: -0.12 log2
Log2 Fold change (vs control) [46]: -0.52 log2
Log2 Fold change (vs control) [47]: 0.28 log2
Log2 Fold change (vs control) [48]: -1.55 log2
Log2 Fold change (vs control) [49]: -5.55 log2
Log2 Fold change (vs control) [50]: -5.52 log2
Log2 Fold change (vs control) [51]: -1.27 log2
Substance: FlagBirA-ClpP (WT) (from UniProt P06709 1-321; Q16740 57-277) (enzyme)
